Here are results for 30 molecules from US20180185450A1 (Sanofi, published 2018).

Numbered stars: 1 amine (or outer) side, 2 acyl side, 3 side chain; on linkers, the order of the positions; unused ones are H or OH. Square brackets hold non-standard residues; d marks the D form. Side chains are listed from the residue outwards. Ends that are not written are not given here. γGlu = O=C(O)[C@H](CCC(=O)[*:2])N[*:1]; x53 = not defined here; Aib = CC(C)(N)C(=O)O

Experiment [1] addresses human GLP-1 receptor (human, UniProt P43220 24-463). The experiment can be described thus: cell-based or functional assay.
Experiment [2] addresses human glucagon receptor (human, UniProt P47871 26-477). The experiment can be described thus: cell-based or functional assay.

Sequence of human glucagon receptor (P47871 26-477): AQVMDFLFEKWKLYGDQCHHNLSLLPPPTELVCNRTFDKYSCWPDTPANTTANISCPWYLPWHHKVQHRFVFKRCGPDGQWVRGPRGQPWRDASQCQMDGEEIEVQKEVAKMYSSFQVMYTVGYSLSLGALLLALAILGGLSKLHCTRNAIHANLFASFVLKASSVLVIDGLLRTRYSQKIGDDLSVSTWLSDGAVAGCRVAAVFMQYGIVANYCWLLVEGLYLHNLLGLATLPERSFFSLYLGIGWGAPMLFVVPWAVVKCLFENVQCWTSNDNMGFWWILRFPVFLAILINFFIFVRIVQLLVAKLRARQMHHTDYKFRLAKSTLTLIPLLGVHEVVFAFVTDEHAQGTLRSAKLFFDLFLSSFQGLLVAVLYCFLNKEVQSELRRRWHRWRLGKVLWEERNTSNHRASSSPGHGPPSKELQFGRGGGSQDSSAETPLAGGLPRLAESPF

B1: SEQ ID NO: 111 (peptide)
peptide: HXQGTFTSDLSKQKESRRAQDFIEWLKNGGPSSGAPPPSK
modifications: dSer at 2; K(γE-x53) at 14; C-terminal NH2
For the molecule B1, the “EC50 hGLP-1R (cAMP)” value in experiment [1] was 8.1 pM. The “EC50 hGlucagon-R (cAMP)” value in experiment [2] was 2.5 pM.

B2: SEQ ID NO: 112 (peptide)
peptide: HXQGTFTSDLSKQKESRRAQDFIEWLKNGGPSSGAPPPSK
modifications: dSer at 2; K(x53) at 14; C-terminal NH2
In the case of B2, the “EC50 hGLP-1R (cAMP)” value in experiment [1] is 33.6 pM. The “EC50 hGlucagon-R (cAMP)” value in experiment [2] was found to be 21.1 pM.

B3: SEQ ID NO: 11 (peptide)
peptide: HXQGTFTSDLSKQKESXAAQDFIEWLKAGGPSSGAPPPS
modifications: dSer at 2; K(γE-x70) at 14; Aib at 17; C-terminal NH2
For B3, the “EC50 hGLP-1R (cAMP)” value in experiment [1] was 3.6 pM. Also, the “EC50 hGlucagon-R (cAMP)” value in experiment [2] came out at 25.7 pM.

B4: SEQ ID NO: 12 (peptide)
peptide: HXQGTFTSDLSKQKESXAAXLFIEWLKAGGPSSGAPPPS
modifications: dSer at 2; K(γE-x53) at 14; Aib at 17; Aib at 20; C-terminal NH2
B4: the “EC50 hGLP-1R (cAMP)” value in experiment [1] amounted to 4.6 pM. Also, the “EC50 hGlucagon-R (cAMP)” value in experiment [2] amounted to 263 pM.

B5: SEQ ID NO: 121 (peptide)
peptide: HXQGTFTSDLSKQKESRAAXLFIEWLKNGGPSSGAPPPS
modifications: dSer at 2; K(γE-x53) at 14; Aib at 20; C-terminal NH2
As for B5, the “EC50 hGLP-1R (cAMP)” value in experiment [1] was 6.1 pM. For the same molecule, in experiment [2], the “EC50 hGlucagon-R (cAMP)” value came to 23.7 pM.

B6: SEQ ID NO: 122 (peptide)
peptide: HXQGTFTSDLSKQKESRAAXLFIEWLKNGGPSSGAPPPS
modifications: dSer at 2; K(x53) at 14; Aib at 20; C-terminal NH2
With B6, in experiment [1], the “EC50 hGLP-1R (cAMP)” value is 24.9 pM. In addition, the “EC50 hGlucagon-R (cAMP)” value in experiment [2] is 156 pM.

B7: SEQ ID NO: 94 (peptide)
peptide: HXQGTFTSDLSKQKDSRRAQDFIEWLKNXGPSSGAPPPS
modifications: dSer at 2; K(γE-x53) at 14; dAla at 29; C-terminal NH2
As for B7, in experiment [1], the “EC50 hGLP-1R (cAMP)” value amounted to 5.2 pM. Further, the “EC50 hGlucagon-R (cAMP)” value in experiment [2] worked out at 2.1 pM.

B8: SEQ ID NO: 107 (peptide)
peptide: HXQGTFTSDLSKQKDSRRAQDFIEWLKNGGPSSGAPPPS
modifications: dSer at 2; K(γE-x53) at 14; C-terminal NH[(CH2)12-OH]
Regarding B8, in experiment [1], the “EC50 hGLP-1R (cAMP)” value was found to be 188 pM. Further, the “EC50 hGlucagon-R (cAMP)” value in experiment [2] is 37.8 pM.

B9: SEQ ID NO: 101 (peptide)
peptide: HXQGTFTSDLSKQKDSRRAQDFIEWLKNGGPSSGAPPPS
modifications: dSer at 2; K(γE-x53) at 14; C-terminal N(diethyl)
For the molecule B9, the “EC50 hGLP-1R (cAMP)” value in experiment [1] amounted to 9.8 pM. The “EC50 hGlucagon-R (cAMP)” value in experiment [2] is 1.7 pM.

B10: SEQ ID NO: 119 (peptide)
peptide: HXQGTFTSDLSKQKESRRAXDFIEWLKNGGPSSGAPPPS
modifications: dSer at 2; K(x53) at 14; Aib at 20; C-terminal NH2
B10: in experiment [1], the “EC50 hGLP-1R (cAMP)” value stood at 30.8 pM. Also, the “EC50 hGlucagon-R (cAMP)” value in experiment [2] worked out at 41.2 pM.

B11: SEQ ID NO: 105 (peptide)
peptide: HXQGTFTSDLSKQKDSRRAQDFIEWLKNGGPSSGAPPPS
modifications: dSer at 2; K(γE-x53) at 14; C-terminal NH[(CH2-CH2-O)24-CH2-CH2-COOH]
For the molecule B11, the “EC50 hGLP-1R (cAMP)” value in experiment [1] came to 7.9 pM. Besides, in experiment [2], the “EC50 hGlucagon-R (cAMP)” value stood at 1 pM.

B12: SEQ ID NO: 116 (peptide)
peptide: HXQGTFTSDLSKQKESRRAQDFIEWLKNGGPSSGAPPPS
modifications: dSer at 2; K(γE-x53) at 14; C-terminal NH2
Turning to B12, in experiment [1], the “EC50 hGLP-1R (cAMP)” value amounted to 6 pM. Besides, the “EC50 hGlucagon-R (cAMP)” value in experiment [2] was determined as 3.6 pM.

B13: SEQ ID NO: 106 (peptide)
peptide: HXQGTFTSDLSKQKDSRRAQDFIEWLKNGGPSSGAPPPS
modifications: dSer at 2; K(γE-x53) at 14; C-terminal NH[(CH2)15-CH3]
As for B13, the “EC50 hGLP-1R (cAMP)” value in experiment [1] stood at 210 pM. In addition, in experiment [2], the “EC50 hGlucagon-R (cAMP)” value amounted to 10.5 pM.

B14: SEQ ID NO: 96 (peptide)
peptide: HXQGTFTSDLSKQKESRRAQDFIEWLKNTGPSSGAPPPS
modifications: dSer at 2; K(γE-x53) at 14; C-terminal NH2
Consider B14, for which, in experiment [1], the “EC50 hGLP-1R (cAMP)” value was 74.3 pM. Further, the “EC50 hGlucagon-R (cAMP)” value in experiment [2] was found to be 3.4 pM.

B15: SEQ ID NO: 108 (peptide)
peptide: HXQGTFTSDLSKQKDSRRAQDFIEWLKNGGPSSGAPPPS
modifications: dSer at 2; K(γE-x53) at 14; C-terminal NH[(CH2)14-CH3]
On to B15, for which the “EC50 hGLP-1R (cAMP)” value in experiment [1] worked out at 197 pM. Also, in experiment [2], the “EC50 hGlucagon-R (cAMP)” value turned out to be 9 pM.

B16: SEQ ID NO: 110 (peptide)
peptide: HXQGTFTSDLSKQKDSRRAQDFIEWLKNGGPSSGAPPPS
modifications: dSer at 2; K(γE-x53) at 14; C-terminal NH[(CH2)13-CH3]
For B16, the “EC50 hGLP-1R (cAMP)” value in experiment [1] was 213 pM. Moreover, the “EC50 hGlucagon-R (cAMP)” value in experiment [2] turned out to be 7.2 pM.

B17: SEQ ID NO: 103 (peptide)
peptide: HXQGTFTSDLSKQKDSRRAQDFIEWLKNGGPSSGAPPPS
modifications: dSer at 2; K(γE-x53) at 14; C-terminal NH(CH2-CF3)
As to B17, the “EC50 hGLP-1R (cAMP)” value in experiment [1] was 10.1 pM. Also, the “EC50 hGlucagon-R (cAMP)” value in experiment [2] was found to be 1.7 pM.

B18: SEQ ID NO: 109 (peptide)
peptide: HXQGTFTSDLSKQKDSRRAQDFIEWLKNGGPSSGAPPPS
modifications: dSer at 2; K(γE-x53) at 14; C-terminal NH[(CH2)17-CH3]
Take B18: in experiment [1], the “EC50 hGLP-1R (cAMP)” value stood at 430 pM. Further, the “EC50 hGlucagon-R (cAMP)” value in experiment [2] was determined as 28.6 pM.

B19: SEQ ID NO: 113 (peptide)
peptide: HXQGTFTSDLSKQKESRRAQDFIEWLKNGGPSSGAPPPK
modifications: dSer at 2; K(γE-x53) at 14; C-terminal NH2
As for B19, the “EC50 hGLP-1R (cAMP)” value in experiment [1] amounted to 11.4 pM. For the same molecule, the “EC50 hGlucagon-R (cAMP)” value in experiment [2] came out at 5.4 pM.

B20: SEQ ID NO: 118 (peptide)
peptide: HXQGTFTSDLSKQKDSRRAXDFIEWLKNGGPSSGAPPPS
modifications: dSer at 2; K(γE-x53) at 14; Aib at 20; C-terminal NH2
Take B20: the “EC50 hGLP-1R (cAMP)” value in experiment [1] came to 15.3 pM. The “EC50 hGlucagon-R (cAMP)” value in experiment [2] amounted to 4.3 pM.

B21: SEQ ID NO: 95 (peptide)
peptide: HXQGTFTSDLSKQKESRRAQDFIEWLKNAGPSSGAPPPS
modifications: dSer at 2; K(γE-x53) at 14; C-terminal NH2
In the case of B21, the “EC50 hGLP-1R (cAMP)” value in experiment [1] was 20.6 pM. In addition, in experiment [2], the “EC50 hGlucagon-R (cAMP)” value worked out at 9.2 pM.

B22: SEQ ID NO: 99 (peptide)
peptide: HXQGTFTSDLSKQKDSRRAQDFIEWLKNGGPSSGAPPPS
modifications: dSer at 2; K(γE-x53) at 14; C-terminal NH(benzyl)
With B22, the “EC50 hGLP-1R (cAMP)” value in experiment [1] turned out to be 15.9 pM. For the same molecule, the “EC50 hGlucagon-R (cAMP)” value in experiment [2] was 2.6 pM.

B23: SEQ ID NO: 104 (peptide)
peptide: HXQGTFTSDLSKQKDSRRAQDFIEWLKNGGPSSGAPPPS
modifications: dSer at 2; K(γE-x53) at 14; C-terminal NH[(CH2-CH2-O)4-CH2-CH2-COOH]
On to B23, for which the “EC50 hGLP-1R (cAMP)” value in experiment [1] amounted to 6.5 pM. Further, the “EC50 hGlucagon-R (cAMP)” value in experiment [2] was found to be 1.1 pM.

B24: SEQ ID NO: 114 (peptide)
peptide: HXQGTFTSDLSKQKESRRAQDFIEWLKNGGPSSGAPPPK
modifications: dSer at 2; K(x53) at 14; C-terminal NH2
For the molecule B24, the “EC50 hGLP-1R (cAMP)” value in experiment [1] is 62.3 pM. Further, the “EC50 hGlucagon-R (cAMP)” value in experiment [2] was found to be 31.1 pM.

B25: SEQ ID NO: 98 (peptide)
peptide: HXQGTFTSDLSKQKDSRRAQDFIEWLKNGGPSSGAPPPS
modifications: dSer at 2; K(γE-x53) at 14; C-terminal NH(pyrrolidin)
As to B25, in experiment [1], the “EC50 hGLP-1R (cAMP)” value came out at 9.6 pM. In experiment [2], the “EC50 hGlucagon-R (cAMP)” value was 1.4 pM.

B26: SEQ ID NO: 100 (peptide)
peptide: HXQGTFTSDLSKQKDSRRAQDFIEWLKNGGPSSGAPPPS
modifications: dSer at 2; K(γE-x53) at 14; C-terminal NH(tert.butyl)
In the case of B26, in experiment [1], the “EC50 hGLP-1R (cAMP)” value worked out at 13.5 pM. The “EC50 hGlucagon-R (cAMP)” value in experiment [2] was 2 pM.

B27: SEQ ID NO: 123 (peptide)
peptide: HXQGTFTSDLSKQKDSQAAQDFIEWLKRGGPSSGAPPPS
modifications: dSer at 2; K(γE-x53) at 14; C-terminal NH2
On to B27, for which the “EC50 hGLP-1R (cAMP)” value in experiment [1] was 2.6 pM. In addition, the “EC50 hGlucagon-R (cAMP)” value in experiment [2] stood at 9.7 pM.

B28: SEQ ID NO: 102 (peptide)
peptide: HXQGTFTSDLSKQKDSRRAQDFIEWLKNGGPSSGAPPPS
modifications: dSer at 2; K(γE-x53) at 14; C-terminal N(morpholin)
With B28, in experiment [1], the “EC50 hGLP-1R (cAMP)” value is 7.2 pM. In addition, the “EC50 hGlucagon-R (cAMP)” value in experiment [2] was 1.1 pM.

B29: SEQ ID NO: 117 (peptide)
peptide: H[Aib]QGTFTSDLSKQK([γGlu-x53])ESRRAQDFIEWLKNGGPSSGAPPPS-NH2
modifications: reading uncertain
On to B29, for which the “EC50 hGLP-1R (cAMP)” value in experiment [1] was 3.8 pM. For the same molecule, the “EC50 hGlucagon-R (cAMP)” value in experiment [2] amounted to 16.5 pM.

B30: SEQ ID NO: 13 (peptide)
peptide: H[Aib]QGTFTSDLSKQK([γGlu-x53])ES[Aib]AAQDFIEWLKAGGPSSGAPPPS-NH2
modifications: reading uncertain
Turning to B30, the “EC50 hGLP-1R (cAMP)” value in experiment [1] worked out at 3.1 pM. Further, the “EC50 hGlucagon-R (cAMP)” value in experiment [2] was 281 pM.
